Test results taken from US20170157250A1.

Assays:
[1] = target: human AXL (full length, on cells) (human (Homo sapiens)) (UniProt P30530); test: flow cytometry, A431 cells pre-incubated with 10 µg/mL Gas6 (competitor); mean (s.d.); less accurate due to low binding
[2] = target: human AXL (full length, on cells) (human (Homo sapiens)) (UniProt P30530); test: flow cytometry, A431 cells pre-incubated with Gas6 (competitor); mean (s.d.); less accurate due to low binding
[3] = target: human AXL (full length, on cells) (human (Homo sapiens)) (UniProt P30530); test: flow cytometry, A431 cells, without Gas6; mean (s.d.)
[4] = target: human AXL (full length, on cells) (human (Homo sapiens)) (UniProt P30530); test: flow cytometry, A431 cells pre-incubated with Gas6 (competitor); mean (s.d.)
[5] = target: human AXL (full length, on cells) (human (Homo sapiens)) (UniProt P30530); test: flow cytometry, A431 cells pre-incubated with 10 µg/mL Gas6 (competitor)
[6] = target: human AXL (full length, on cells) (human (Homo sapiens)) (UniProt P30530); test: flow cytometry, A431 cells pre-incubated with 10 µg/mL Gas6 (competitor); mean (s.d.)

human AXL (full length, on cells) (human (Homo sapiens)), sequence (P30530 26-894 limits assumed): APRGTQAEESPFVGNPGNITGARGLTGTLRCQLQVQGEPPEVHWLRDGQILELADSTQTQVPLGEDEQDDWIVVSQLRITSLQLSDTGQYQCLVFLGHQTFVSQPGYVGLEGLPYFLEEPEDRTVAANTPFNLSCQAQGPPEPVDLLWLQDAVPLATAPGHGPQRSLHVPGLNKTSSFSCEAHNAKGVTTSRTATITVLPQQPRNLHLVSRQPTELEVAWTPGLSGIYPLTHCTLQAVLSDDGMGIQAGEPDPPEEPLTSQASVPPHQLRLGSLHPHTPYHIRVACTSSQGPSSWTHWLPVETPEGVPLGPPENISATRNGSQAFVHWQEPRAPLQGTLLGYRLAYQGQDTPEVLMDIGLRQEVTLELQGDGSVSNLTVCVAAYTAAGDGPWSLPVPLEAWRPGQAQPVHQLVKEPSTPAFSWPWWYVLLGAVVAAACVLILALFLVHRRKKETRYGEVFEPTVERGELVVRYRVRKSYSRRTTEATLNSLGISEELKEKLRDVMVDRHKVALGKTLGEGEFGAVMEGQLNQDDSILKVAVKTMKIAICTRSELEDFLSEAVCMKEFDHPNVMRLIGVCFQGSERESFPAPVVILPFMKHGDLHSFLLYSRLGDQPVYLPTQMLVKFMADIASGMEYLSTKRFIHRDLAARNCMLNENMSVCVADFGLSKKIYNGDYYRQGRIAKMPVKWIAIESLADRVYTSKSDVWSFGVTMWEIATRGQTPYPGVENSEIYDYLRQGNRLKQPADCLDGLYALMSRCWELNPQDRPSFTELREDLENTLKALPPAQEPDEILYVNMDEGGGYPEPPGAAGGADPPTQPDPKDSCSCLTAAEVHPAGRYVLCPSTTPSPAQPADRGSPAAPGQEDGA

B1: YW327.6S2 (antibody, from another filing, V domains shown)
VH: EVQLVESGGGLVQPGGSLRLSCAASGFSLSGSWIHWVRQAPGKGLEWVGWINPYRGYAYYADSVKGRFTISADTSKNTAYLQMNSLRAEDTAVYYCAREYSGWGGSSVGYAMDYWGQGTLVTVSS
VL: DIQMTQSPSSLSASVGDRVTITCRASQDVSTAVAWYQQKPGKAPKLLIYSASFLYSGVPSRFSGSGSGTDFTLTISSLQPEDFATYYCQQSYTTPPTFGQGTKVEIK
Binder B1 has an EC50 [1] of 1.9 µg/mL, an EC50 [2] of 1.9 µg/mL and an EC50 [3] of 0.09 µg/mL. For the same binder, the maximal binding in presence of Gas6 (% of binding in absence of Gas6) [4] was 41%, the fold change of EC50 with Gas6 pre-incubation against without Gas6 [5] was 21 fold and the maximal binding in presence of Gas6 (% of binding without Gas6) [5] was 19%. It also gave a maximal binding in presence of Gas6 (% of binding in absence of Gas6) [6] of 41%.
